Test results: patent US20250340623A1 (AC IMMUNE, published 2025)
Where no end group is shown, it is not given here. The star is where a group is joined. Biotin = O=C1N[C@H]2[C@H](CS[C@H]2CCCCC(=O)*)N1; Ahx = NCCCCCC(=O)O

T1: 64-78aa
T1 construct: also called alpha-synuclein peptide 64-78
T1 peptide: {Biotin-Ahx}-TNVGGAVVTGVTAVA

T2: 82-96aa
T2 construct: also called alpha-synuclein peptide 82-96
T2 peptide: {Biotin-Ahx}-VEGAGSIAAATGFVK

T3: 118-132aa
T3 peptide: {Biotin-Ahx}-VDPDNEAYEMPSEEG

T4: 46-60aa
T4 construct: also called alpha-synuclein peptide 46-60
T4 peptide: {Biotin-Ahx}-EGVVHGVATVAEKTK

T5: 127-140aa
T5 peptide: {Biotin-Ahx}-MPSEEGYQDYEPEA

T6: 91-105aa
T6 peptide: {Biotin-Ahx}-ATGFVKKDQLGKNEE

T7: 1-14aa
T7 construct: also called alpha-synuclein peptide 1-14
T7 peptide: MDVFMKGLSKAKEG-biotin

T8: 1-15aa
T8 construct: also called alpha-synuclein peptide 1-15
T8 peptide: {Biotin-Ahx}-MDVFMKGLSKAKEGV

T9: 10-24aa
T9 construct: also called alpha-synuclein peptide 10-24
T9 peptide: {Biotin-Ahx}-KAKEGVVAAAEKTKQ


How the values were obtained:
alpha-synuclein seeds [1] = biological target: T10, alpha-synuclein seeds (UniProt P37840 1-140); experiment: cell-based or functional assay
alpha-synuclein seeds [2] = biological target: T10, alpha-synuclein seeds; experiment: cell-based or functional assay; remark: listed apart in the source
64-78aa = biological target: T1, 64-78aa; experiment: indirect ELISA on biotinylated 15-mer peptide
Experimental: (§1) Serum-free supernatants were harvested from stable hybridomas. The supernatants containing antibodies of interest were then screened by an indirect ELISA assay to determine epitopes. Epitopes were first determined using a library of 15-mer peptides covering the entire sequence of human alpha-synuclein protein, spanning amino acids (aa) 1-140 with 9aa offset and […] overlap. […] Briefly, streptavidin-coated ELISA plates were blocked overnight at 4° C. […] Plates were washed with PBS/0.05% Tween®20 and then incubated with the hybridoma supernatants at 1/100 dilution for 1 hour at 25° C.

82-96aa = biological target: T2, 82-96aa; experiment: indirect ELISA on biotinylated 15-mer peptide
Experimental: as §1

118-132aa = biological target: T3, 118-132aa; experiment: indirect ELISA on biotinylated 15-mer peptide
Experimental: as §1

46-60aa = biological target: T4, 46-60aa; experiment: indirect ELISA on biotinylated 15-mer peptide
Experimental: as §1

127-140aa = biological target: T5, 127-140aa; experiment: indirect ELISA on biotinylated 15-mer peptide, supernatant 1/100
Experimental: as §1

91-105aa = biological target: T6, 91-105aa; experiment: indirect ELISA on biotinylated 15-mer peptide
Experimental: as §1

1-14aa = biological target: T7, 1-14aa; experiment: indirect ELISA on biotinylated 15-mer peptide
Experimental: as §1

1-15aa = biological target: T8, 1-15aa; experiment: indirect ELISA on biotinylated 15-mer peptide
Experimental: as §1

10-24aa = biological target: T9, 10-24aa; experiment: indirect ELISA on biotinylated 15-mer peptide
Experimental: as §1

| IC50, percentage of de novo alpha-synuclein aggregates formed in cells after immunodepletion of seeds (alpha-synuclein seeds [1]) [nM] | aggregation half-time (τ1/2) of seeded alpha-synuclein aggregation, ThT; no antibody 26.9 hours (alpha-synuclein seeds [2]) [h] | binding result (64-78aa) | binding result (82-96aa) | binding result (118-132aa) | binding result (46-60aa) | binding result (127-140aa) | binding result (91-105aa) | binding result (1-14aa) | binding result (1-15aa) | binding result (10-24aa) | Binder |
| --- | --- | --- | --- | --- | --- | --- | --- | --- | --- | --- | --- |
| 21.6 |  |  |  |  |  |  |  |  |  |  | ACI-4301D5_3108C10 (bispecific antibody, V domains shown) VH 1: QVQLQQSGPELVRPGASVKISCKASGYRFTSYYIHWVKQRPGQGLEWIGWIYPGSDNTKHNDKFKGKATLTADTSSSTAYMQLSSLTSEDSAVYFCARDYDVGFGYWGQGTLVTVSS VL 1: not shown VH 2: ELQLVESGGGLVRPGGSLKLSCATSGFTFRNYAMSWVRQTPAKRLEWVATISDGGTYTFYSDNVKGRFTISRDNVKNTLYLQMSHLKSEDTAMYYCSRAGSGHWGQGTTLTVSS VL 2: not shown |
|  | 30.1 | no binding (tested: supernatant 1/100) | no binding (tested: supernatant 1/100) | no binding (tested: supernatant 1/100) | no binding (tested: supernatant 1/100) | binds |  |  |  |  | ACI-7067-1113D10-Ab1 (antibody, V domains shown, mouse hybridoma mAb; VH/VL only; also called 1113D10E3D5) VH: EVQLVESGGGLVQPKGSLKLSCAASGFTFNTYALHWVRQAPGKGLEWVARIRSKSSNYATYYADSVKDRFTISRDDSQSMLYLQMNNLKTEDTGMYYCVRGGVSPFDYWGQGTTLTVSS VL: QIVLTQSPAIMSASPGEKVTMTCSASSSVSYMHWYQQKSGTSPKRWIYDTSKLASGVPARFSGSGSGTSYSLTISSMEAEDSATYYCQQWSNNPPTFGGGTKLEIK |
|  |  | no binding (tested: supernatant 1/100) | no binding (tested: supernatant 1/100) | no binding (tested: supernatant 1/100) | no binding (tested: supernatant 1/100) | binds |  |  |  |  | ACI-7067-1106A8-Ab2 (antibody, V domains shown, mouse hybridoma mAb; VH/VL only; also called 1106A8H3) VH: EVQLVESGGGLVQPKGSLKLSCAASGFTFNTYAMHWVRQAPGKGLEWVARIRSKGSNYATNYADSVKDRFTISRDDSQSMLYLQMNNLKTEDTAMYYCVRGHGSSYFSYWGQGTLVTVSA VL: QIVLTQSPAIMSASPGEKVTMTCSASSSVSYMHWYQQKSGTSPKRWIYDTSNLASGVPARFSGSGSGTSYSLTISSMEAEDAATYYCQQWNSHPPTFGAGTKLELK |
|  |  |  | no binding (tested: supernatant 1/100) | no binding (tested: supernatant 1/100) | no binding (tested: supernatant 1/100) | binds | no binding (tested: supernatant 1/100) | no binding (tested: supernatant 1/100) | no binding (tested: supernatant 1/100) | no binding (tested: supernatant 1/100) | ACI-7079-2602G4-Ab4 (antibody, V domains shown, mouse hybridoma mAb; VH/VL only; also called 2602G4H1) VH: EVQLVESGGGLVQPKGSLKLSCAASGFTFKTYAMHWVRQAPGKGLEWVARIRSKGSDYATYYADSVKDRFTISRDDSQSMLYLQMNNLKTEDTAMYFCVRGGADSWFAYWGQGTLVTVST VL: QIVLTQSPAIMSASPGERITMTCTASSSVSYMHWYQQKSGTSPKRWIYDTSKLASGVPARFSGSGSGASYTLTISSMEAEDAATYYCQQWNRNPPTFGGGTQLAIK |
|  |  |  | no binding (tested: supernatant 1/100) | no binding (tested: supernatant 1/100) | no binding (tested: supernatant 1/100) | binds | no binding (tested: supernatant 1/100) | no binding (tested: supernatant 1/100) | no binding (tested: supernatant 1/100) | no binding (tested: supernatant 1/100) | ACI-7079-2605B3-Ab2 (antibody, V domains shown, mouse hybridoma mAb; VH/VL only; also called 2605B3D1) VH: EVQLVESGGGLVQPKGSLKLSCAASGFIFKTYAMHWVRQAPGKGLEWVARIRSKGGNYATYFADSVKDRFTISRDDSQNMLYLQVNNLKIEDTAMYFCVRGGNYSWFAYWGQGTLVTVSA VL: QIVLTQSPAIMSASPGEKVTMTCSASSSVTYMHWYQQKSGTSPKRWIYDTSQLASGVPARFSGSGSGTSHSLTISSMETEDAATYYCQQWTRNPPTFGGGTKLAIK |
|  |  |  | no binding (tested: supernatant 1/100) | no binding (tested: supernatant 1/100) | no binding (tested: supernatant 1/100) | binds | no binding (tested: supernatant 1/100) | no binding (tested: supernatant 1/100) | no binding (tested: supernatant 1/100) | no binding (tested: supernatant 1/100) | ACI-7079-2501D10-Ab1 (antibody, V domains shown, mouse hybridoma mAb; VH/VL only; also called 2501D10C3) VH: EVQLVESGGGLVQPKGSLKVSCAASGFTFKTYAMHWVRQAPGKGLEWVARIRSENSNFAKYYADSVKDRFTISRDDSQSMLYLQMNNLKTEDTAMYYCVRGYNGSSLDYWGQGTTLTVSS VL: QIVLTQSPAIMSAFPGERVTMTCSASSSVNYMHWYQQKSGTSPKRWIYDTSKLASGVPARFSGGGSGTSYSLTISNMEAEDAATYYCQQWRSNPPTFGGGTKLEIK |
|  |  |  | no binding (tested: supernatant 1/100) | no binding (tested: supernatant 1/100) | no binding (tested: supernatant 1/100) | binds | no binding (tested: supernatant 1/100) | no binding (tested: supernatant 1/100) | no binding (tested: supernatant 1/100) | no binding (tested: supernatant 1/100) | ACI-7079-2603F3-Ab1 (antibody, V domains shown, mouse hybridoma mAb; VH/VL only; also called 2603F3H3) VH: EVQLVESGGGLVQPKGSLKLSCAASGFTFNTYAMHWVRQAPGKGLEWVARIRSKGSNYATYYADSVKDRFTISRDDSQSMLYLQMNNLKTEDTAMYYCVRGGGDSWFAYWGQGTLVTVSA VL: QIVLTQSPAIMSASPGERVTMTCTASSSVSYMHWYQQKSGTSPKRWIYDTSKLASGVPARFSGSGSGASYTLTISSMEAEDAATYYCQQWNSNPPTFGGGTQLAIK |
|  |  |  | no binding (tested: supernatant 1/100) | no binding (tested: supernatant 1/100) | no binding (tested: supernatant 1/100) | binds | no binding (tested: supernatant 1/100) | no binding (tested: supernatant 1/100) | no binding (tested: supernatant 1/100) | no binding (tested: supernatant 1/100) | ACI-7079-2507B3-Ab1 (antibody, V domains shown, mouse hybridoma mAb; VH/VL only; also called 2507B3G8) VH: EVQLVESGGGLVQPKGSLKVSCAASGFTFKTYAMHWVRQAPGKGLEWVARIRSENSNFAKYYADSVKDRFTISRDDSQSMLYLQMHTLKTEDTAIYYCVRGYNGSSLDYWGQGTTLTVSS VL: QIVLTQSPAIMSAFPGERVTMTCSASSSVNYMHWYQQKSGTSPKRWIYDTSKLASGVPARFSGGGSGTSYSLTISNMEAEDAATYYCQQWRSNPPTFGGGTKLEIK |
|  | 33.3 | no binding (tested: supernatant 1/100) | no binding (tested: supernatant 1/100) | no binding (tested: supernatant 1/100) | no binding (tested: supernatant 1/100) | binds |  |  |  |  | ACI-7067-1108B11-Ab2 (antibody, V domains shown, mouse hybridoma mAb; VH/VL only; also called 1108B11D3) VH: EVQLVESGGGLVQPKGSLKLSCAASGFTFNTYAMHWVRQAPGKGLEWVARIRSKGSNYATNYADSVKDRFTISRDDSQSMLYLQMNNLKTEDTAMYYCVRGHGSSYFSYWGQGTLVTVSA VL: QIVLTQSPAIMSASPGERITMTCSANSSVTYMHWYQQKSGTSPKRWIYDTSNLASGVPARFSGSGSGTSYSLTISSMEAEDAATYYCQQWKSHPPTFGAGTKLELK |
| 18 |  |  |  |  |  |  |  |  |  |  | ACI-3112H1_1101C8 (bispecific antibody, V domains shown) VH 1: EVQLQQSGPELVKPGASVKISCKASGYTFSDYFMNWVKQSHGKSLEWIGDINPNNGGSSYIQKFKGKATLTVDKSSTTAYMELRSLTSEDSAVYYCARGSNYAMDSWGQGTSVTVSS VL 1: DIVMSQSPSSLAVSAGEKVTMSCKSSQSLLNSRTRKNYLAWYQQKPGQSPKLLIYWASTRESGVPDRFTGSGSGTDFTLTISSVQAEDLAVYYCKQSYDLWTFGGGTKLEIK VH 2: EVQLVESGGGLVQPKGSLKLSCAASGFSFNIYAMNWVRQAPGKGLEWVARIRSKSNNYATYYADSVKDRFTISRADSESMLYLQMNNLKTEDTAMYYCVRVGLRFYAMDYWGQGTSVTVSS VL 2: DVLMTQTPLSLPVSLGDQASISCRSSQSIVHSNGNTYLEWYLQKPGQSPKLLIYKVSNRFSGVPDRFSGSGSGTDFTLKISRVEAEDLGVYYCFQGSQGPLTFGAGTKLELK |
